Data: patent US5767235

What follows are substances tested against human-thrombin (product of Sigma) (human) (UniProt P00734) (assay: not given).

First: peptide (A) Gly-Asp-Phe-Glu-Glu-Ile-Pro-Glu-Tyr-Tyr-Leu-Gln
Second: peptide (V) Suc-Phe-Glu-Pro-Ile-Pro-Glu-Tyr-Tyr-Leu-(L)Asu(OMe)OMe
The 50% Inhibition Concentration (clotting assay) of the first is 2.1-fold lower: 14700 ng/mL for the first, 30400 ng/mL for the second.

Going from “peptide (S) Suc-Phe-Glu-Pro-Ile-Pro-Glu-Tyr-Tyr-Leu-Tau-NH2” to “peptide (K) Suc-Phe-Glu-Pro-Ile-Pro-Glu-Tyr-Tyr-NH(CH2)2COOH”, the 50% Inhibition Concentration (clotting assay) falls from 99600 ng/mL to 30200 ng/mL (3.3-fold).

“peptide (N) Suc-Phe-Glu-Pro-Ile-Pro-Glu-Tyr-Tyr-NH(CH2)3OH” and “peptide (P) Suc-Phe-Glu-Pro-Ile-Pro-Glu-Tyr-Tyr-Leu-ol” are within 1.5-fold of each other in 50% Inhibition Concentration (clotting assay): 103000 ng/mL for the first, 104000 ng/mL for the second.

“peptide (I) Suc-Phe-Glu-Pro-Ile-Pro-Glu-Tyr-Tyr-OH” and “peptide (B) Gly-Asp-Phe-Glu-Glu-Ile-Pro-Tyr-Tyr-Tyr-Leu-Gln” are within 1.5-fold of each other in 50% Inhibition Concentration (clotting assay): 20000 ng/mL for the first, 13800 ng/mL for the second.

“peptide (U) Suc-Phe-Glu-Pro-Ile-Pro-Glu-Tyr-Tyr-Leu-(D)Asu(OMe)OMe” and “peptide (R) Suc-Phe-Glu-Pro-Ile-Pro-Glu-Tyr-Tyr-Leu-NHEt” are within 1.5-fold of each other in 50% Inhibition Concentration (clotting assay): 47500 ng/mL for the first, 36100 ng/mL for the second.

Going from “peptide (W) Suc-Phe-Glu-Pro-Ile-Pro-Glu-Tyr-Tyr-Leu-(D)Asu(NH2)NH2” to “peptide (J) Suc-Phe-Glu-Pro-Ile-Pro-Glu-Tyr-Tyr-NH2”, the 50% Inhibition Concentration (clotting assay) rises from 35000 ng/mL to 98400 ng/mL (2.8-fold).

Compared with “peptide (C) Suc-Gly-Asp-Phe-Glu-Pro-Ile-Pro-Glu-Tyr-Tyr-Leu-Gln-OH”, “peptide (Y) Suc-Phe-Glu-Pro-Ile-Pro-Glu-Tyr-Tyr-Leu-NHPO(OH)2” is 41-fold higher in 50% Inhibition Concentration (clotting assay): 3750 ng/mL for the first, 153000 ng/mL for the second.

Compared with “peptide (L) Suc-Phe-Glu-Pro-Ile-Pro-Glu-Tyr-Tyr-NH(CH2)4COOH”, “peptide (O) Suc-Phe-Glu-Pro-Ile-Pro-Glu-Tyr-Tyr-(L)Asu(OMe)OMe” is 2.3-fold higher in 50% Inhibition Concentration (clotting assay): 15600 ng/mL for the first, 35300 ng/mL for the second.

Going from “peptide (A) Gly-Asp-Phe-Glu-Glu-Ile-Pro-Glu-Tyr-Tyr-Leu-Gln” to hirudin HV-1, the Potency rises from 0.45 to 95.

Compared with “peptide (V) Suc-Phe-Glu-Pro-Ile-Pro-Glu-Tyr-Tyr-Leu-(L)Asu(OMe)OMe”, “peptide (S) Suc-Phe-Glu-Pro-Ile-Pro-Glu-Tyr-Tyr-Leu-Tau-NH2” is lower in Potency: 0.22 for the first, 0.07 for the second.

Compared with “peptide (K) Suc-Phe-Glu-Pro-Ile-Pro-Glu-Tyr-Tyr-NH(CH2)2COOH”, “peptide (N) Suc-Phe-Glu-Pro-Ile-Pro-Glu-Tyr-Tyr-NH(CH2)3OH” is lower in Potency: 0.21 for the first, 0.06 for the second.

Compared with “peptide (P) Suc-Phe-Glu-Pro-Ile-Pro-Glu-Tyr-Tyr-Leu-ol”, “peptide (I) Suc-Phe-Glu-Pro-Ile-Pro-Glu-Tyr-Tyr-OH” is higher in Potency: 0.06 for the first, 0.83 for the second.

Compared with “peptide (B) Gly-Asp-Phe-Glu-Glu-Ile-Pro-Tyr-Tyr-Tyr-Leu-Gln”, “peptide (U) Suc-Phe-Glu-Pro-Ile-Pro-Glu-Tyr-Tyr-Leu-(D)Asu(OMe)OMe” is lower in Potency: 0.48 for the first, 0.14 for the second.

First: peptide (R) Suc-Phe-Glu-Pro-Ile-Pro-Glu-Tyr-Tyr-Leu-NHEt
Second: peptide (W) Suc-Phe-Glu-Pro-Ile-Pro-Glu-Tyr-Tyr-Leu-(D)Asu(NH2)NH2
The Potency of the first is lower: 0.18 for the first, 0.19 for the second.

Compared with “peptide (J) Suc-Phe-Glu-Pro-Ile-Pro-Glu-Tyr-Tyr-NH2”, “peptide (C) Suc-Gly-Asp-Phe-Glu-Pro-Ile-Pro-Glu-Tyr-Tyr-Leu-Gln-OH” is higher in Potency: 0.07 for the first, 1.76 for the second.

Compared with “peptide (Y) Suc-Phe-Glu-Pro-Ile-Pro-Glu-Tyr-Tyr-Leu-NHPO(OH)2”, “peptide (L) Suc-Phe-Glu-Pro-Ile-Pro-Glu-Tyr-Tyr-NH(CH2)4COOH” is higher in Potency: 0.04 for the first, 0.42 for the second.

“peptide (O) Suc-Phe-Glu-Pro-Ile-Pro-Glu-Tyr-Tyr-(L)Asu(OMe)OMe” was tested, and the Potency was 0.19.

Each substance was assayed against human-thrombin (product of Sigma) (human) (UniProt P00734) (assay: chromogenic thrombin inhibition assay, potency column of Table 3 (hirudin HV-1 = 1)).

hirudin HV-1 gave a Potency of 1.
